Results: the supplement of paper PMC7877785
± gives the uncertainty stated by the source.

Test: self-splicing fitness, log relative to wild type (ln ratio); higher = more splicing; Tetrahymena group I intron in knt gene, E. coli kanamycin selection, DiMSum; sequences stand for … in CUCUCU…GGAGGGAAAAGUUAUCAGGCAUGCACCUGGUAGCUAGUCUUUAAACCAAUAGAUUGCAUCGGUUUAAAAGGCAAGACCGUCAAAUUGCGGGAAAGGGGUCAACAGCCGUUCAGUACCAAGUCUCAGGGGAAACUUUGAGAUGGCCUUGCAAAGGGUAUGGUAAUAAGCUGACGGACAUGGUCCUAACCACGCAGCCAAGUCCUAAGUCAACAGAUCUUCUGUUGAUAUGGAUGCAGUUCACAGACUAAAUGUCGGUCGGGGAAGAUGUAUUCUUCUCAUAAGAUAUAGUCGGACCUCUCCUUAAUGGGAGCUAGCGGAUGAAGUGAUGCAACACUGGAGCCGCUGGGAACUAAUUUGUAUGCGAAAGUAUAUUGAUUAGUUUUGGAGUACUCGUGGUCG
In short: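 Colonies from six replicate transformations of E. coli BL21(DE3) were pooled and amplicon-sequenced on an Illumina HiSeq 2500. The library placed an intron with all eight P1ex-region nucleotides randomised inside the knt kanamycin-resistance gene on pET-22b(+), and cells grew overnight at 37°C or 30°C on LB agar with or without 25 μg/mL kanamycin (plus 100 μg/mL carbenicillin, 50 μM IPTG, 0.2% rhamnose). Fitness is the DiMSum error-weighted combination of wild-type-normalised replicate fold changes, kanamycin versus none.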

| Sequence | self-splicing fitness (ln) (30 °C) | self-splicing fitness (ln) (37 °C) |
| --- | --- | --- |
| ACCUAGCAAUAUUACGCAAG | -2.73 ± 0.15 | -2.2 ± 0.18 |
| GUAUAGCAAUAUUACGUCUU | -1.64 ± 0.14 | 0.0317 ± 0.13 |
| CGACAGCAAUAUUACGGUUC | -2.59 ± 0.1 | -2.24 ± 0.13 |
| AAACAGCAAUAUUACGCGGU | -3.32 ± 0.23 | -2.18 ± 0.17 |
| CUUCAGCAAUAUUACGCGUC | -2.6 ± 0.23 | -0.821 ± 0.14 |
| UAGGAGCAAUAUUACGACUG | -0.384 ± 0.096 | 0.363 ± 0.14 |
| GGAGAGCAAUAUUACGUUGG | -4.09 ± 0.47 | -2.64 ± 0.36 |
| AAUGAGCAAUAUUACGGGUC | -2.57 ± 0.37 |  |
| UGUUAGCAAUAUUACGGCCU | -0.213 ± 0.27 | 0.286 ± 0.25 |
| GGAUAGCAAUAUUACGCAGA | -2.53 ± 0.25 | -1.58 ± 0.21 |
| UAGUAGCAAUAUUACGUGUU | -3.65 ± 0.21 | -1.95 ± 0.15 |
| AGGCAGCAAUAUUACGUACA | -0.585 ± 0.071 | -0.742 ± 0.093 |
| GCGAAGCAAUAUUACGACAA | -2.21 ± 0.18 | -0.672 ± 0.12 |
| GGCCAGCAAUAUUACGAACU | -0.359 ± 0.07 | -0.12 ± 0.079 |
| UAUGAGCAAUAUUACGUACA | -2.39 ± 0.18 | -1.62 ± 0.23 |
| GUCAAGCAAUAUUACGGUGC | -2.35 ± 0.12 | -1.72 ± 0.18 |
| GUCAAGCAAUAUUACGAUCU | -2.31 ± 0.067 | -1.04 ± 0.068 |

| Sequence | self-splicing fitness (ln) (30 °C) | self-splicing fitness (ln) (37 °C) |
| --- | --- | --- |
| UACUAGCAAUAUUACGUAAU | -2.63 ± 0.17 | -1.93 ± 0.22 |
| UUGGAGCAAUAUUACGGAUG | -3.54 ± 0.34 | -2.12 ± 0.4 |
| CAAUAGCAAUAUUACGUCAG | -1.95 ± 0.066 | -1.12 ± 0.07 |
| CUGUAGCAAUAUUACGUCGC | -2.89 ± 0.28 | -3.19 ± 0.4 |
| UACCAGCAAUAUUACGGACU | -0.102 ± 0.073 | 0.199 ± 0.098 |
| AGAUAGCAAUAUUACGAAUC | -1.46 ± 0.18 | -1.06 ± 0.24 |
| CUAGAGCAAUAUUACGAGUG | -0.496 ± 0.067 | -0.868 ± 0.085 |
| GGAUAGCAAUAUUACGUCGC | -1.97 ± 0.17 | -1.42 ± 0.21 |
| AUAUAGCAAUAUUACGACGG | -2.5 ± 0.17 | -2.5 ± 0.22 |
| GAGAAGCAAUAUUACGCAUC | -3.12 ± 0.43 | -2.6 ± 0.35 |
| AUUAAGCAAUAUUACGGCUU | -0.718 ± 0.088 | 0.207 ± 0.12 |
| UUUAAGCAAUAUUACGCGAA | -1.43 ± 0.12 | -0.145 ± 0.15 |
| UUCUAGCAAUAUUACGCAUG | -3.42 ± 0.16 | -2.01 ± 0.18 |
| UUGCAGCAAUAUUACGUGAU | -3.85 ± 0.2 | -2.06 ± 0.17 |
| UUGUAGCAAUAUUACGGAAG | -3.94 ± 0.33 | -1.7 ± 0.36 |
| GAAGAGCAAUAUUACGCGAA | -3.32 ± 0.23 | -2.94 ± 0.38 |
